Source: the supplement of paper PMC9112550, “Optimization of the antimicrobial peptide Bac7 by deep mutational scanning” (BMC Biology, 2022)

test system: Escherichia coli TOP10; experiment: shrunken log2 fold change of peptide-encoding DNA abundance (4.5 h post-induction vs induction); higher = less antimicrobial activity (less host growth inhibition); details: time post-induction: 4.5 h; library: site-saturation at positions 5, 18, 19, 20
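Further: peptides expressed intracellularly from a pBAD plasmid library in pooled LB shake-flask culture, induced with 0.3% L-arabinose, DNA abundance read by NGS, three biological replicates, DESeq2 with apeglm shrinkage.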

Row | Sequence | shrunken log2 fold change
1 | RRIRLRPPRLPRPRPRPGVYPRP | -0.221
2 | RRIRLRPPRLPRPRPRPHARPRP | 0.416
3 | RRIRLRPPRLPRPRPRPHCGPRP | -0.22
4 | RRIRLRPPRLPRPRPRPHCLPRP | -0.0829
5 | RRIRLRPPRLPRPRPRPHCTPRP | -0.533
6 | RRIRLRPPRLPRPRPRPHDPPRP | -0.459
7 | RRIRLRPPRLPRPRPRPHDWPRP | 0.184
8 | RRIRLRPPRLPRPRPRPHEIPRP | -0.298
9 | RRIRLRPPRLPRPRPRPHEQPRP | 0.00509
10 | RRIRLRPPRLPRPRPRPHERPRP | 0.274
11 | RRIRLRPPRLPRPRPRPHESPRP | -0.0598
12 | RRIRLRPPRLPRPRPRPHFVPRP | -0.0621
13 | RRIRLRPPRLPRPRPRPHGWPRP | 0.0568
14 | RRIRLRPPRLPRPRPRPHHCPRP | -0.301
15 | RRIRLRPPRLPRPRPRPHHKPRP | -0.644
16 | RRIRLRPPRLPRPRPRPHHNPRP | -0.547
17 | RRIRLRPPRLPRPRPRPHHYPRP | -0.628
18 | RRIRLRPPRLPRPRPRPHIKPRP | -0.528
19 | RRIRLRPPRLPRPRPRPHIQPRP | -0.341
20 | RRIRLRPPRLPRPRPRPHISPRP | -0.272
21 | RRIRLRPPRLPRPRPRPHKDPRP | -0.697
22 | RRIRLRPPRLPRPRPRPHKVPRP | -0.18
23 | RRIRLRPPRLPRPRPRPHLDPRP | -0.0911
24 | RRIRLRPPRLPRPRPRPHMAPRP | 0.0118
25 | RRIRLRPPRLPRPRPRPHMMPRP | -0.135

Row | Sequence | shrunken log2 fold change
26 | RRIRLRPPRLPRPRPRPHNAPRP | 1.08
27 | RRIRLRPPRLPRPRPRPHQAPRP | -0.216
28 | RRIRLRPPRLPRPRPRPHQHPRP | -0.109
29 | RRIRLRPPRLPRPRPRPHRRPRP | 0.0082
30 | RRIRLRPPRLPRPRPRPHRYPRP | 0.00601
31 | RRIRLRPPRLPRPRPRPHSYPRP | -0.0533
32 | RRIRLRPPRLPRPRPRPHTRPRP | -0.0601
33 | RRIRLRPPRLPRPRPRPHVHPRP | -0.0727
34 | RRIRLRPPRLPRPRPRPHWMPRP | -0.0826
35 | RRIRLRPPRLPRPRPRPHWNPRP | -0.315
36 | RRIRLRPPRLPRPRPRPHWSPRP | 0.0161
37 | RRIRLRPPRLPRPRPRPHYSPRP | -0.246
38 | RRIRLRPPRLPRPRPRPHYVPRP | -0.169
39 | RRIRLRPPRLPRPRPRPICLPRP | 0.193
40 | RRIRLRPPRLPRPRPRPIDNPRP | -0.421
41 | RRIRLRPPRLPRPRPRPIFTPRP | -0.206
42 | RRIRLRPPRLPRPRPRPIGPPRP | 0.0835
43 | RRIRLRPPRLPRPRPRPIGYPRP | -0.253
44 | RRIRLRPPRLPRPRPRPIIEPRP | -0.171
45 | RRIRLRPPRLPRPRPRPILDPRP | -0.05
46 | RRIRLRPPRLPRPRPRPINRPRP | 0.0141
47 | RRIRLRPPRLPRPRPRPINSPRP | 0.0605
48 | RRIRLRPPRLPRPRPRPIPLPRP | 0.0264
49 | RRIRLRPPRLPRPRPRPIQKPRP | 0.0625
50 | RRIRLRPPRLPRPRPRPIRNPRP | -0.45

Row | Sequence | shrunken log2 fold change
51 | RRIRLRPPRLPRPRPRPIRQPRP | -0.0246
52 | RRIRLRPPRLPRPRPRPIRVPRP | 0.101
53 | RRIRLRPPRLPRPRPRPIVSPRP | -0.0372
54 | RRIRLRPPRLPRPRPRPIYCPRP | -0.527
55 | RRIRLRPPRLPRPRPRPKAWPRP | -0.0115
56 | RRIRLRPPRLPRPRPRPKDQPRP | -0.271
57 | RRIRLRPPRLPRPRPRPKECPRP | -0.0179
58 | RRIRLRPPRLPRPRPRPKHAPRP | 0.0823
59 | RRIRLRPPRLPRPRPRPKHEPRP | 0.053
60 | RRIRLRPPRLPRPRPRPKISPRP | -0.0626
61 | RRIRLRPPRLPRPRPRPKKVPRP | -0.0117
62 | RRIRLRPPRLPRPRPRPKLLPRP | -0.331
63 | RRIRLRPPRLPRPRPRPKMHPRP | 0.0307
64 | RRIRLRPPRLPRPRPRPKNLPRP | 0.0548
65 | RRIRLRPPRLPRPRPRPKPDPRP | 0.315
66 | RRIRLRPPRLPRPRPRPKQFPRP | 0.0426
67 | RRIRLRPPRLPRPRPRPKREPRP | 0.0937
68 | RRIRLRPPRLPRPRPRPKRQPRP | 0.045
69 | RRIRLRPPRLPRPRPRPKTAPRP | 0.037
70 | RRIRLRPPRLPRPRPRPKTCPRP | 0.118
71 | RRIRLRPPRLPRPRPRPKTFPRP | -0.201
72 | RRIRLRPPRLPRPRPRPKTMPRP | 0.0334
73 | RRIRLRPPRLPRPRPRPKTQPRP | -0.189
74 | RRIRLRPPRLPRPRPRPKVTPRP | -0.00182
75 | RRIRLRPPRLPRPRPRPKWGPRP | 0.0532

Row | Sequence | shrunken log2 fold change
76 | RRIRLRPPRLPRPRPRPKWKPRP | 0.0281
77 | RRIRLRPPRLPRPRPRPKWNPRP | -0.299
78 | RRIRLRPPRLPRPRPRPKYLPRP | -0.55
79 | RRIRLRPPRLPRPRPRPLALPRP | -0.438
80 | RRIRLRPPRLPRPRPRPLCIPRP | -0.569
81 | RRIRLRPPRLPRPRPRPLDTPRP | 0.0486
82 | RRIRLRPPRLPRPRPRPLGCPRP | 0.0856
83 | RRIRLRPPRLPRPRPRPLHGPRP | 0.0823
84 | RRIRLRPPRLPRPRPRPLIHPRP | -0.542
85 | RRIRLRPPRLPRPRPRPLILPRP | -0.429
86 | RRIRLRPPRLPRPRPRPLKQPRP | -0.0926
87 | RRIRLRPPRLPRPRPRPLKRPRP | -0.0716
88 | RRIRLRPPRLPRPRPRPLNGPRP | -0.217
89 | RRIRLRPPRLPRPRPRPLPEPRP | 0.39
90 | RRIRLRPPRLPRPRPRPLPRPRP | 0.475
91 | RRIRLRPPRLPRPRPRPLQCPRP | 0.121
92 | RRIRLRPPRLPRPRPRPLSCPRP | -0.0916
93 | RRIRLRPPRLPRPRPRPLSKPRP | 0.0272
94 | RRIRLRPPRLPRPRPRPLSQPRP | 0.00591
95 | RRIRLRPPRLPRPRPRPLSVPRP | -0.0123
96 | RRIRLRPPRLPRPRPRPLYAPRP | -0.389
97 | RRIRLRPPRLPRPRPRPMADPRP | 0.0237
98 | RRIRLRPPRLPRPRPRPMCHPRP | -0.0587
99 | RRIRLRPPRLPRPRPRPMCPPRP | 0.128
100 | RRIRLRPPRLPRPRPRPMCTPRP | -0.0698

Row | Sequence | shrunken log2 fold change
101 | RRIRLRPPRLPRPRPRPMCYPRP | -0.294
102 | RRIRLRPPRLPRPRPRPMDVPRP | 0.0104
103 | RRIRLRPPRLPRPRPRPMEMPRP | -0.0251
104 | RRIRLRPPRLPRPRPRPMFNPRP | -0.524
105 | RRIRLRPPRLPRPRPRPMFYPRP | -0.361
106 | RRIRLRPPRLPRPRPRPMGDPRP | 0.0227
107 | RRIRLRPPRLPRPRPRPMHAPRP | 0.12
108 | RRIRLRPPRLPRPRPRPMIPPRP | -0.0974
109 | RRIRLRPPRLPRPRPRPMIQPRP | -0.139
110 | RRIRLRPPRLPRPRPRPMIWPRP | -0.0275
111 | RRIRLRPPRLPRPRPRPMKAPRP | -0.0274
112 | RRIRLRPPRLPRPRPRPMPDPRP | -0.00255
113 | RRIRLRPPRLPRPRPRPMPRPRP | 0.291
114 | RRIRLRPPRLPRPRPRPMPSPRP | -0.0353
115 | RRIRLRPPRLPRPRPRPMPYPRP | -0.0714
116 | RRIRLRPPRLPRPRPRPMQCPRP | -0.0717
117 | RRIRLRPPRLPRPRPRPMQYPRP | -0.208
118 | RRIRLRPPRLPRPRPRPMRIPRP | 0.269
119 | RRIRLRPPRLPRPRPRPMSHPRP | 0.0207
120 | RRIRLRPPRLPRPRPRPMSVPRP | -0.18
121 | RRIRLRPPRLPRPRPRPMTFPRP | -0.263
122 | RRIRLRPPRLPRPRPRPMTIPRP | 0.0154
123 | RRIRLRPPRLPRPRPRPMTLPRP | -0.156
124 | RRIRLRPPRLPRPRPRPMWMPRP | -0.00116
125 | RRIRLRPPRLPRPRPRPNCMPRP | -0.415

Row | Sequence | shrunken log2 fold change
126 | RRIRLRPPRLPRPRPRPNCPPRP | -0.213
127 | RRIRLRPPRLPRPRPRPNCWPRP | 0.388
128 | RRIRLRPPRLPRPRPRPNEVPRP | -0.0062
129 | RRIRLRPPRLPRPRPRPNEYPRP | -0.321
130 | RRIRLRPPRLPRPRPRPNFCPRP | 0.101
131 | RRIRLRPPRLPRPRPRPNFFPRP | 0.247
132 | RRIRLRPPRLPRPRPRPNHLPRP | 0.0169
133 | RRIRLRPPRLPRPRPRPNHYPRP | -0.505
134 | RRIRLRPPRLPRPRPRPNKCPRP | -0.323
135 | RRIRLRPPRLPRPRPRPNMDPRP | 0.0212
136 | RRIRLRPPRLPRPRPRPNMPPRP | -0.265
137 | RRIRLRPPRLPRPRPRPNRLPRP | -0.0858
138 | RRIRLRPPRLPRPRPRPNRPPRP | -0.0609
139 | RRIRLRPPRLPRPRPRPNSDPRP | -0.2
140 | RRIRLRPPRLPRPRPRPNSIPRP | -0.0133
141 | RRIRLRPPRLPRPRPRPNSVPRP | -0.11
142 | RRIRLRPPRLPRPRPRPNVKPRP | -0.107
143 | RRIRLRPPRLPRPRPRPNWQPRP | 0.351
144 | RRIRLRPPRLPRPRPRPNWYPRP | -0.771
145 | RRIRLRPPRLPRPRPRPPAHPRP | 0.445
146 | RRIRLRPPRLPRPRPRPPAPPRP | 0.789
147 | RRIRLRPPRLPRPRPRPPCCPRP | -0.0934
148 | RRIRLRPPRLPRPRPRPPCYPRP | 0.00883
149 | RRIRLRPPRLPRPRPRPPDEPRP | 0.264
150 | RRIRLRPPRLPRPRPRPPGFPRP | 0.278
